Experimental data published in patent publication US20170275665.

Target: T1, Marinomonas mediterranea (MMB-1) Cas2, purified with N-terminal 6xHis tag
T1 chain: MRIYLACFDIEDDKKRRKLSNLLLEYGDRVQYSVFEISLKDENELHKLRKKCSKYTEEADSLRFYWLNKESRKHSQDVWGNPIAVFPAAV

B1: Marinomonas mediterranea (MMB-1) RT-Cas1 fusion protein, wild type, purified with N-terminal maltose-binding protein tag (protein)
chain: MLNSPLIDAVLPLRSVVITLRWLSPSKTGFLHHAGLHAWVRFLAGSPEQFSDFIVVEPIENGHISYQAGDGYRFRITVLNGGESLLDTLFSSLKRLPESAANHPDIAGAFSDNLVLEKIEDTFEHHQVTQIEDLSVFDINALMLETAVWSRQRRFKVAFNTPARLVKPKPEDGTELKGQNRYCRDKSDLNWQLFTHRLTDTFINLFQSRTGERLQRQNWPEAQLHAGLAVWLNNSYTNKKEKKVKDASGMLAQMQIEIDDDFPADLLALLVLGQYIGMGQNRAFGMGQYQLQDAYGYCSYPRPQAAKSLLEKSLSDASLHQACQTMYPRQANFDSSDTDEEHHDAIDELLTKLYVSRERIFKREFTPSQLHSVEIEKPEGGTRLLSVPNWHDRTLQKAVTECLGNTLEHIWMKHSYGYRKGHSRLQARDQINQYIQQGYEWVLESDIESFFDSVNWLNLEQRLKLLLPNEPLVPLLMQWVSAAKQTEDEQTLARHNGLPQGAPISPILANLLLDDLDQDMIAKGHQIVRYADDFVLLFKSKAAAESALDDIITALKEHHLAINLEKTRIVEASQGFRYLGYLFVDGYAIETKREYRKEHAQLDKQLNASSLENEPSLQQEPAVQNEQSTLIGEREKLGTLLIIAGDIAMLSSEKQRLIVEQYDELHTYPWATLSSVLLVGPHHITTPALKSAMFHNVPVHFASQYGRYQGVSAGAAPSVFGADFWLLQAQYLQQETNALNISQVLIQARIEGIRAVISRREKDAPELNKIQRLDEKRLRAETLDQLRGYEGQASKQLWAFFQRILEEDWGFTGRNRRPPKDPINALLSLGYTYLYSLVDSVNRTVGLYPWQGALHQRHGYHHTLASDLMEPWRYLVEHVVLTLINRHQIHKDDFVIKENGCEMSSGARKTLLKELLVQLTKVPKGGNSLLTEMSNQSYRLALSCKMQQRFIAWSPKR
For B1, the “cleavage of the CRISPR DNA substrate with ligation of a dsDNA oligonucleotide (in vitro cleavage-ligation assay, gel)” value was “products derived from cleavage of the CRISPR substrate were readily detected in the presence of RT-Cas1 and Cas2 together but not in the presence of either protein alone”.
